Target: T1, angiotensin-converting-enzyme derived from pig kidney (pig) (UniProt F1RRW5)
T1 sequence (looked up): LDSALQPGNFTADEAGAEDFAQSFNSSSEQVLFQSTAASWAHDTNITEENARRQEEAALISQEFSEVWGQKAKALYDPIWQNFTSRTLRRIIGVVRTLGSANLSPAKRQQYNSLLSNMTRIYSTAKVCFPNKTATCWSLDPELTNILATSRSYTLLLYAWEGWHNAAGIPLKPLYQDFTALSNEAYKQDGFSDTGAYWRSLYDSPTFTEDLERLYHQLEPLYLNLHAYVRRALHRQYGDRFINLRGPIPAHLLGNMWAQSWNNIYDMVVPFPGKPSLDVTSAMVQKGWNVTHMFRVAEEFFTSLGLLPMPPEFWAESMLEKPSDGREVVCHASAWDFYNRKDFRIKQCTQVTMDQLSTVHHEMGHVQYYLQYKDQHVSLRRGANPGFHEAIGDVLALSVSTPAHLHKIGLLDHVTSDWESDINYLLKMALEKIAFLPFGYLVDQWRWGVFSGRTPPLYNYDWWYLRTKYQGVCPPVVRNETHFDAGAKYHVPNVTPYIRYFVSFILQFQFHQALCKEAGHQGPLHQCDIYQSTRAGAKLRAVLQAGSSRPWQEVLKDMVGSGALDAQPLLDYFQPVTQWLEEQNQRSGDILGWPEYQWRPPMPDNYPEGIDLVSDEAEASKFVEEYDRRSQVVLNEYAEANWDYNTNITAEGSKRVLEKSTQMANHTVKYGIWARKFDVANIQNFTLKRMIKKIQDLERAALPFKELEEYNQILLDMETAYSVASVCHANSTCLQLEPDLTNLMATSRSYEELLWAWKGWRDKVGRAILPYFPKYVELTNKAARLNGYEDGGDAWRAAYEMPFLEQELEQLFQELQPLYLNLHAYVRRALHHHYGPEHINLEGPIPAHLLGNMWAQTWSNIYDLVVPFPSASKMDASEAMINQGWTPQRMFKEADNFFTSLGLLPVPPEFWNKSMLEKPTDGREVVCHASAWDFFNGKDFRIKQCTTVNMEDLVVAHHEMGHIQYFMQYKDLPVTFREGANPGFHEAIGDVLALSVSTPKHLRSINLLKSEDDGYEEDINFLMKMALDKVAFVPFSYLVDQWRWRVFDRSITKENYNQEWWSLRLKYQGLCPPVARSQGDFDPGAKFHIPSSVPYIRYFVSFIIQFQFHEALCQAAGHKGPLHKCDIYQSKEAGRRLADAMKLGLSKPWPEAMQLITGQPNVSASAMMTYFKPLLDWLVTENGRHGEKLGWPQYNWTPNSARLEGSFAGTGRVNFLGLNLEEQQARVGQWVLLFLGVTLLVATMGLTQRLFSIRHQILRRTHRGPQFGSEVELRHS
Assay: cell-based or functional assay

## Peptid S547 (SPLPEVPP) (peptide)
  % inhibition at 0.39 µM, A: 10.2%
  % inhibition at 0.39 µM, B: 6.82%
  % inhibition at 0.39 µM, C: 6.02%
  % inhibition at 0.39 µM, D: 0.575%
  % inhibition at 0.78125 µM, A: 9.62%
  % inhibition at 0.78125 µM, B: 10%
  % inhibition at 0.78125 µM, C: 7.72%
  % inhibition at 0.78125 µM, D: 10.8%
  % inhibition at 1.5625 µM, A: 13.4%
  % inhibition at 1.5625 µM, B: 14.9%
  % inhibition at 1.5625 µM, C: 9.3%
  % inhibition at 1.5625 µM, D: 12.9%
  % inhibition at 3.125 µM, A: 21.8%
  % inhibition at 3.125 µM, B: 18%
  % inhibition at 3.125 µM, C: 16%
  % inhibition at 3.125 µM, D: 11.6%
  % inhibition at 6.25 µM, A: 31.4%
  % inhibition at 6.25 µM, B: 29.2%
  % inhibition at 6.25 µM, C: 28%
  % inhibition at 6.25 µM, D: 25.7%
  % inhibition at 12.5 µM, A: 36.6%
  % inhibition at 12.5 µM, B: 36.5%
  % inhibition at 12.5 µM, C: 35.3%
  % inhibition at 12.5 µM, D: 34.5%
  % inhibition at 25 µM, A: 52%
  % inhibition at 25 µM, B: 46.2%
  % inhibition at 25 µM, C: 49.3%
  % inhibition at 50 µM, A: 67.1%
  % inhibition at 50 µM, B: 65%
  % inhibition at 50 µM, C: 63.6%
  % inhibition at 50 µM, D: 56%
  % inhibition at 100 µM, A: 79.8%
  % inhibition at 100 µM, B: 78.4%
  % inhibition at 100 µM, C: 78.4%
  % inhibition at 100 µM, D: 78%
  % inhibition at 200 µM, A: 89.6%
  % inhibition at 200 µM, B: 89.4%
  % inhibition at 200 µM, C: 88.5%
  % inhibition at 200 µM, D: 88.6%
  fluorescence at 0.39 µM, A: 934000
  fluorescence at 0.39 µM, B: 969000
  fluorescence at 0.39 µM, C: 977000
  fluorescence at 0.39 µM, D: 1.03e+06
  fluorescence at 0.78125 µM, A: 940000
  fluorescence at 0.78125 µM, B: 935000
  fluorescence at 0.78125 µM, C: 959000
  fluorescence at 0.78125 µM, D: 928000
  fluorescence at 1.5625 µM, A: 900000
  fluorescence at 1.5625 µM, B: 885000
  fluorescence at 1.5625 µM, C: 943000
  fluorescence at 1.5625 µM, D: 906000
  fluorescence at 3.125 µM, A: 814000
  fluorescence at 3.125 µM, B: 853000
  fluorescence at 3.125 µM, C: 874000
  fluorescence at 3.125 µM, D: 919000
  fluorescence at 6.25 µM, A: 715000
  fluorescence at 6.25 µM, B: 737000
  fluorescence at 6.25 µM, C: 750000
  fluorescence at 6.25 µM, D: 773000
  fluorescence at 12.5 µM, A: 661000
  fluorescence at 12.5 µM, B: 662000
  fluorescence at 12.5 µM, C: 674000
  fluorescence at 12.5 µM, D: 683000
  fluorescence at 25 µM, A: 502000
  fluorescence at 25 µM, B: 562000
  fluorescence at 25 µM, C: 530000
  fluorescence at 25 µM, D: 560000
  fluorescence at 50 µM, A: 346000
  fluorescence at 50 µM, B: 367000
  fluorescence at 50 µM, C: 382000
  fluorescence at 50 µM, D: 460000
  fluorescence at 100 µM, A: 214000
  fluorescence at 100 µM, B: 229000
  fluorescence at 100 µM, C: 229000
  fluorescence at 100 µM, D: 233000
  fluorescence at 200 µM, A: 113000
  fluorescence at 200 µM, B: 116000
  fluorescence at 200 µM, C: 125000
  fluorescence at 200 µM, D: 124000
